Measurements taken from US20260232825A1, “LINKER-DRUG MOLECULE AND ANTIBODY DRUG CONJUGATE, PREPARATION METHOD THEREFOR AND USE THEREOF” (SHANGHAI ESCUGEN BIOTECHNOLOGY CO., LTD., priority 2023, published 2026).
pIC50: −log10 of the molar value. Numbered stars: 1 amine (or outer) side, 2 acyl side, 3 side chain; on linkers, the order of the positions; unused ones are H or OH. Square brackets hold non-standard residues; d marks the D form. Peptide text beside a SMILES is read from it. * marks the point of attachment. Exatecan = CC[C@@]1(O)C(=O)OCc2c1cc1n(c2=O)Cc2c-1nc1cc(F)c(C)c3c1c2[C@@H](N*)CC3; Dolaproine = CO[C@@H]([C@@H]1CCCN1)[C@@H](C)C(=O)O; Hexanoyl(6-maleimido) = O=C1C=CC(=O)N1CCCCCC(=O)*; Dil = CC[C@H](C)[C@H](NC)[C@@H](CC(=O)O)OC; PABC = O=C(OCc1ccc(N[*:1])cc1)[*:2]; X1 = C[N+](C)(CCCS(=O)(=O)[O-])CCN*; NHCH2OCH2CO = O=C(COCN[*:1])[*:2]; X2 = C[C@@H](N*)[C@@H](O)c1ccccc1; NMeV = CN[C@H](C(=O)O)C(C)C

Experiments:
Cathepsin B enzyme = molecular target: T1, Cathepsin B enzyme (Homo sapiens, UniProt P07858); assay: In vitro enzymatic release of free toxin molecules by Cathepsin B; type: biochemical
T1 construct: purchased Sino Biological 10483-H08H
Experimental: Preparation of activated buffer solution (10 mM L-cysteine (ACRO, cat #: 173600250), 15 mM EDTA, 0.1M His HCl, pH 5.5): […] of solid cysteine was weighed, adding 3 mL of 0.1M His HCl (pH 5.5) solution for dissolution, and then adding 90 μL of 0.5M EDTA solution to mix well.
[…] At each detection time point, 50 μL of enzyme digestion solution was taken, adding 2.5 μL of 10% TFA solution to terminate the reaction for enzyme digestion kinetics detection.
Negative control preparation: 30 μL of activated buffer was taken to stay in 37° C. water bath for 15 minutes, then adding 300 μL of 0.1M His HCl (pH 5.5) solution and 36 μL of 9D1-LD-38 (375 μg) to stay in 37° C. water bath overnight.

[1] = Hydrophobic interaction chromatography (HIC) analysis of the antibody-drug conjugates; type: physicochemical; conditions: main peak of the antibody-drug conjugate, Butyl-NPR column
Experimental: Size exclusion chromatography (SEC) analysis column is Tskgel G3000SWXL (TOSOH, 0008541); mobile phase is 0.1 M PB, pH7.0, 0.1M NaCl; isocratic elution, flow rate: 1 mL/min; column temperature: 25° C. Detection wavelength is 280 nm and 366 nm, respectively. Hydrophobic interaction chromatography (HIC) analysis column is Butyl-NPR 4.6×100 mm (TOSOH, 0042168); mobile phase A is 50 mM PB, pH7.0, 1.5 M (NH4)2SO4; mobile phase B is 50 mM PB, pH7.0, 20% acetonitrile. Separation gradient: changing from 0% B to 100% B in 2-20 min, column temperature: 30° C., flow rate: 0.6 mL/min. Detection wavelength is 280 nm and 366 nm, respectively. The results are shown in Table 1 and FIG. 1-FIG. 6 (FIG. 1 comprises FIG. 1A and FIG. 1B; FIG. 2 comprises FIG. 2A and FIG. 2B; FIG. 3 comprises FIG. 3A, FIG. 3B, FIG. 3C, FIG. 3D, FIG. 3E, FIG. 3F, FIG. 3G and FIG. 3H; FIG. 4 comprises FIG. 4A and FIG. 4B; FIG. 5 comprises FIG. 5A and FIG. 5B; and FIG. 6 comprises FIG. 6A, FIG. 6B, FIG. 6C, […], FIG. 6E, FIG. 6F, FIG. 6G and […]).

[2] = Size exclusion chromatography (SEC) analysis of the antibody-drug conjugates; type: physicochemical; conditions: SEC purity of the antibody-drug conjugate
Experimental: Size exclusion chromatography (SEC) analysis column is Tskgel G3000SWXL (TOSOH, 0008541); mobile phase is 0.1 M PB, pH7.0, 0.1M NaCl; isocratic elution, flow rate: 1 mL/min; column temperature: 25° C. Detection wavelength is 280 nm and 366 nm, respectively. Hydrophobic interaction chromatography (HIC) analysis column is Butyl-NPR 4.6×100 mm (TOSOH, 0042168); mobile phase A is 50 mM PB, pH7.0, 1.5 M (NH4)2SO4; mobile phase B is 50 mM PB, pH7.0, 20% acetonitrile. Separation gradient: changing from 0% B to 100% B in 2-20 min, column temperature: 30° C., flow rate: 0.6 mL/min. Detection wavelength is 280 nm and 366 nm, respectively.

MC38-hClaudin18.2 cells = assay: In vitro tumor cell killing activity, MC38-hClaudin18.2 cell line (AlamarBlue); type: cell-based, mouse; conditions: MC38-hClaudin18.2 cells, 48-72 hours, AlamarBlue; read-out: IC50 values
Experimental: 9D1 antibody-drug conjugates prepared in the previous Experimental Examples and Comparative Examples were used for performing in vitro killing test on MC38 cell lines stably expressing human Claudin18.2. MC38-hClaudin18.2 cells were inoculated into a 96-well cell culture plate at 3000 cells/well, adding gradient diluted 9D1 ADCs next day to culture for 48-72 hours. The fluorescence values of each experimental well were detected by AlamarBlue reagent (ThermoFisher, item number DAL1100), and the cell viability was calculated.
When the cell confluence was greater than 80%, the cells were passaged at a ratio of 1:10 to 1:20 every 3 days.
MC38-hClaudin18.2 cells were digested by a digestive solution of recombinant enzyme (TrypLE™ Express Enzyme). […] The cell density was adjusted to 3×10^4 cells/mL, inoculating into 96-well cell culture plate at 100 μL/well. The cells were cultured overnight at 37° C. in 5% C02 incubator. The next day, the test drug was diluted 10 times in a series with a total of 7-8 concentration points, simultaneously setting a blank control with a sample concentration of 0. The diluted sample was added to 96-well cell culture plate containing cells at 100 μL/well, then incubating at 37° C. in 5% CO2 incubator for 48-72 hours. 20 μL of AlamarBlue detection reagent was added to each well, incubating at 37° C. for 4-6 hours, the fluorescence signal intensity was detected on a multifunctional enzyme-linked immunosorbent assay (ELISA) instrument with an excitation wavelength of 560 nm and an emission wavelength of 590 nm.
The cell viability of the blank control was set to 100%, and the cell viability (%) of the experimental well was calculated by the following formula: […]
The detected average cell viability was takedn as the y-axis, a sigmoid dose response (Variable Slope) method (GraphPad Prism software, GraphPad Software, San Diego, California) was used for nonlinear regression to obtain the inhibitory effect curves of cell proliferation, and the corresponding IC50 values (half maximum inhibition concentration) were calculated. […]

[3] = Time 0 h, linker-toxin to Cathepsin B about 1200:1, 37° C.

Row | Compound | HIC retention time [1] | SEC % [2] | also measured
1 | CC[C@@]1(O)C(=O)OCc2c1cc1n(c2=O)Cc2c-1nc1cc(F)c(C)c3c1c2[C@@H](NC(=O)COCNC(=O)CNC(=O)[C@H](Cc1ccccc1)NC(=O)CNC(=O)CNC(=O)CCCCCN1C(=O)C=CC1=O)CC3 [Deruxtecan (MC-GGFG-Dxd), reference compound] ({Hexanoyl(6-maleimido)}-GGFG[NHCH2OCH2CO]-Exatecan) |  |  | Cathepsin B enzyme digestion kinetics (Cathepsin B enzyme; [3]): 0%; Cathepsin B enzyme digestion kinetics (Cathepsin B enzyme; Time 1 h): 0%; Cathepsin B enzyme digestion kinetics (Cathepsin B enzyme; Time 2 h): 0%; Cathepsin B enzyme digestion kinetics (Cathepsin B enzyme; Time 4 h): 0%; Cathepsin B enzyme digestion kinetics (Cathepsin B enzyme; Time 20 h): 0%; Cathepsin B enzyme digestion kinetics (Cathepsin B enzyme; Time 20 h, listed as MC-GGFG-Dxd): does not release any enzyme digestion products
2 | CC[C@@]1(O)C(=O)OCc2c1cc1n(c2=O)Cc2c-1nc1cc(F)c(C)c3c1c2[C@@H](NC(=O)OCc1ccc(NC(=O)[C@H](C)NC(=O)[C@@H](NC(=O)[C@H](CCC(=O)O)NC(=O)CCCCCN2C(=O)C=CC2=O)C(C)C)cc1)CC3 [LD-27] | 15.107 min |  | 
3 | CC[C@@]1(O)C(=O)OCc2c1cc1n(c2=O)Cc2c-1nc1cc(F)c(C)c3c1c2[C@@H](NC(=O)OCc1ccc(NC(=O)[C@H](C)NC(=O)[C@@H](NC(=O)[C@H](CCC(=O)NCC[N+](C)(C)CCCS(=O)(=O)[O-])NC(=O)CCOCCOCCOCCOCCNC(=O)CCN2C(=O)C=CC2=O)C(C)C)cc1)CC3 [LD-37] | 14.069 min | 97.50% | 
4 | CC[C@@]1(O)C(=O)OCc2c1cc1n(c2=O)Cc2c-1nc1cc(F)c(C)c3c1c2[C@@H](NC(=O)OCc1ccc(NC(=O)[C@H](CCC(=O)NCC[N+](C)(C)CCCS(=O)(=O)[O-])NC(=O)[C@@H](NC(=O)CCOCCOCCOCCOCCNC(=O)CCN2C(=O)C=CC2=O)C(C)C)cc1)CC3 [LD-38] | 13.57 min |  | Cathepsin B enzyme digestion kinetics (Cathepsin B enzyme; [3]): 0%; Cathepsin B enzyme digestion kinetics (Cathepsin B enzyme; Time 1 h): 20%; Cathepsin B enzyme digestion kinetics (Cathepsin B enzyme; Time 2 h): 77%; Cathepsin B enzyme digestion kinetics (Cathepsin B enzyme; Time 20 h): 100%
5 | CC[C@H](C)[C@@H]([C@@H](CC(=O)N1CCC[C@H]1[C@H](OC)[C@@H](C)C(=O)N[C@H](C)[C@@H](O)c1ccccc1)OC)N(C)C(=O)[C@@H](NC(=O)[C@H](C(C)C)N(C)C(=O)OCc1ccc(NC(=O)[C@H](CCC(=O)NCC[N+](C)(C)CCCS(=O)(=O)[O-])NC(=O)[C@@H](NC(=O)CCCCCN2C(=O)C=CC2=O)C(C)C)cc1)C(C)C [LD-57] ({Hexanoyl(6-maleimido)}-VE(X1)[PABC][NMeV]V[Dil][Dolaproine]-X2) | 16.066 min | 99.34% | 
6 | CC[C@@]1(O)C(=O)OCc2c1cc1n(c2=O)Cc2c-1nc1cc(F)c(C)c3c1c2[C@@H](NC(=O)OCc1ccc(NC(=O)[C@H](C)NC(=O)[C@@H](NC(=O)CCOCCOCCOCCOCCNC(=O)CCN2C(=O)C=CC2=O)C(C)C)cc1CN(C)C(=O)CCC[N+](C)(C)CCCS(=O)(=O)[O-])CC3 [LD-65] | 13.46 min | 99.28% | HIC retention time ([1]; listed as 7): 13.455 min; Cathepsin B enzyme digestion kinetics (Cathepsin B enzyme; [3]): 0%; Cathepsin B enzyme digestion kinetics (Cathepsin B enzyme; Time 1 h): 0%; Cathepsin B enzyme digestion kinetics (Cathepsin B enzyme; Time 2 h): 1%; Cathepsin B enzyme digestion kinetics (Cathepsin B enzyme; Time 4 h): 1%
7 | CC[C@@]1(O)C(=O)OCc2c1cc1n(c2=O)Cc2c-1nc1cc(F)c(C)c3c1c2[C@@H](NC(=O)OCc1ccc(NC(=O)CNC(=O)[C@H](Cc2ccccc2)NC(=O)CNC(=O)CNC(=O)CCCCCN2C(=O)C=CC2=O)cc1CN(C)C(=O)COP(=O)([O-])OCC[N+](C)(C)C)CC3 [LD-72] | 13.126 min | 98.90% | 
8 | CC[C@@]1(O)C(=O)OCc2c1cc1n(c2=O)Cc2c-1nc1cc(F)c(C)c3c1c2[C@@H](NC(=O)OCc1ccc(NC(=O)[C@H](C)NC(=O)[C@@H](NC(=O)CCOCCOCCOCCOCCNC(=O)CCN2C(=O)C=CC2=O)C(C)C)cc1CN(C)C(=O)CCOCCOCCOCCOCCOCCOCCOCCOCCOC)CC3 [LD-73] | 16.002 min | 99.53% | 
9 | CC[C@@]1(O)C(=O)OCc2c1cc1n(c2=O)Cc2c-1nc1cc(F)c(C)c3c1c2[C@@H](NC(=O)OCc1ccc(NC(=O)[C@H](C)NC(=O)[C@@H](NC(=O)CCCCCN2C(=O)C=CC2=O)C(C)C)cc1CN(C)C(=O)CN(C)C(=O)CN(C)C(=O)CN(C)C(=O)CN(C)C(=O)CN(C)C(=O)CN(C)C(=O)CN(C)C(=O)CN(C)C(=O)CN(C)C(=O)CN(C)C(C)=O)CC3 [LD-74, reference compound] | 13.583 min | 99.53% | 
10 | CC[C@@]1(O)C(=O)OCc2c1cc1n(c2=O)Cc2c-1nc1cc(F)c(C)c3c1c2[C@@H](NC(=O)OCc1ccc(NC(=O)[C@H](CCC(=O)N(CCCS(=O)(=O)[O-])CC[N+](C)(C)C)NC(=O)[C@@H](NC(=O)CCOCCOCCOCCOCCNC(=O)CCN2C(=O)C=CC2=O)C(C)C)cc1)CC3 [LD-89] | 13.392 min | 98.00% | 
11 | CC[C@@]1(O)C(=O)OCc2c1cc1n(c2=O)Cc2c-1nc1cc(F)c(C)c3c1c2[C@@H](NC(=O)OCc1ccc(NC(=O)[C@H](C)NC(=O)[C@@H](NC(=O)CCCCCN(C)CCN2C(=O)C=CC2=O)C(C)C)cc1CN(C)C(=O)CCC[N+](C)(C)CCCS(=O)(=O)[O-])CC3 [LD-98] | 13.121 min | 98.79% | 
12 | CC[C@H](C)[C@@H]([C@@H](CC(=O)N1CCC[C@H]1[C@H](OC)[C@@H](C)C(=O)N[C@H](C)[C@@H](O)c1ccccc1)OC)N(C)C(=O)[C@@H](NC(=O)[C@@H](NC)C(C)C)C(C)C [MMAE, monomethyl auristatin E] (H-[NMeV]V[Dil][Dolaproine]-X2) |  |  | pIC50 (MC38-hClaudin18.2 cells): 8.69
